{"source": "patent US10976317B2", "about": "“Systematic discovery, maturation and extension of peptide binders to proteins” (Roche Sequencing Solutions, Inc., priority 2013, dated 2021)"}
{"target": "T1, human prostate specific antigen (PSA) (Homo sapiens, UniProt P07288)", "T1 construct": "biotin (chemical label, NHS-PEG4-biotin on amines)", "T1 sequence (P07288 25-261)": "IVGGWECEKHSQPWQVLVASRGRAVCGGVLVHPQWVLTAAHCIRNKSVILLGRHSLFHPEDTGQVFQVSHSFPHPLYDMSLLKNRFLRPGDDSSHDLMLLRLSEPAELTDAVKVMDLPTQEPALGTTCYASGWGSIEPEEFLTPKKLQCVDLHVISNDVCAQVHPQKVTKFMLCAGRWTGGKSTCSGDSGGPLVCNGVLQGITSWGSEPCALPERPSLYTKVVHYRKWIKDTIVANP", "assay": "PSA binding assay on 5-mer peptide array (biotin-labelled PSA, Streptavidin Cy5 staining, fluorescence signal)", "conditions": "5-mer Array; rank in the list of 405 sequences with the highest average signal intensity; PSA 100 ng/ml, 25° C., 12 hrs", "source_text": "Array Design: 5-mer array was designed by using all combinations of 18 natural amino acids excluding cysteine and methionine, any dimer or a longer repeat of the same amino acid, as well as any peptide containing HR, RH, HK, KH, RK, KR, HP, and PQ sequences to create a library of 1,360,732 unique peptides. Extension Arrays were designed by extending sequences selected from 5-mer arrays experiments by two amino acids from both N- and C-terminus using all 20 natural amino acids. Double Substitution/Deletion Arrays were designed by extension of sequences identified in the extension array experiments with glycine (G) amino acid to make them 11-mer peptides and creating a library that includes all possible single- and double substitution/deletion variants of the original sequence.\nArray Synthesis: 5-mer Arrays were synthesized with 5 cycles of synthesis using a mixture of G and S amino acids in a 3:1 ratio, respectively at the N- and C-terminus of each of the 5-mer peptide. Extension and Double Substitution/Deletion Arrays were synthesized directly without using flanking wobble synthesis.\nBinding Assay: PSA labelled with biotin using EZ-Link NHS-PEG4-biotinylation kit (Thermo Fisher Sci., Inc. Rockford, Ill.) was incubated in SecureSeal hybridization chamber (Grace Bio-Labs, Bend, Ore.) at concentration 100 ng/ml in 1×TE binding buffer with 1% alkali soluble casein at 25° C. for 12 hrs. Array was washed 3× with 1×TE buffer and stained with Streptavidin Cy5 in 1× binding buffer with 1% alkali soluble casein at 25° C. for 1 hr, and washed 3× with 1×TE buffer and finally with 0.1×TE buffer and scanned using a 2 micrometer MS200 scanner (Roche/Nimblegen, Madison, Wis.).\nData analysis: Image analysis and signal extraction performed using NimbleGen DEVA software, and peptides with fluorescent signal are identified. The 5-mer sequences for the binding peptides are identified and clustered based on distances using the standard BLOSUM 62 substitution matrix as implemented by an R package ‘PEPLIB’ (see, White et al., 2013, cited above). The distances of the 5-mer peptides are plotted on the first two components of a PCA plot. Consensus motifs for each cluster are reported in the graph."}
{"substance": "FEVYL", "rank by binding signal to PSA": 1}
{"substance": "RSILY", "rank by binding signal to PSA": 307}
{"substance": "WEVHL", "rank by binding signal to PSA": 28}
{"substance": "WTVYA", "rank by binding signal to PSA": 3}
